Measured values: the supplement of paper PMC9732359
± gives the uncertainty stated by the source.

Assay: protein stability index of a GFP-peptide fusion (yeast GPS) (PSI 1-4); higher = more stable; sorted into four equal gates, so the index is relative within each strain
Method in brief: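 Each library plasmid carries Cherry plus GFP with a tiled 17-residue yeast protein peptide fused downstream, and the pooled library was carried in yeast. Mid-log cultures in leucine-free medium were sorted into four equal gates by GFP/Cherry ratio. Reads from Illumina sequencing of PCR-amplified plasmids from each gate were assigned to strains by barcodes. Per peptide, the protein stability index was computed as the summed products of gate read frequency and gate number.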

| Sequence | protein stability index (doa10∆) | protein stability index (pdr5∆) | protein stability index (san1∆) | protein stability index (ubr1∆) |
| --- | --- | --- | --- | --- |
| VSNILSAFKFIHTQLSE [YJL039C/NUP192] | 2.19 ± 0.061 | 1.92 ± 0.048 | 1.47 ± 0.094 | 1.58 ± 0.037 |
| ILNSYGVLKPDITFFGE [SIR2] | 3.27 ± 0.069 | 3.13 ± 0.072 | 3.21 ± 0.049 | 3.31 ± 0.062 |
| VMWGKVTRTHGNSGVVR [RPL33A] | 2.83 ± 0.071 | 2.94 ± 0.075 | 2.97 ± 0.051 | 2.98 ± 0.07 |
| MAREHAPSIIFMDEIDS [RPT6] | 2.14 ± 0.073 | 2.11 ± 0.077 | 2.54 ± 0.099 | 2.42 ± 0.059 |
| NKASLAQYEVLANYLTS [QCR2] | 2.42 ± 0.063 | 2.41 ± 0.051 | 2.5 ± 0.075 | 2.64 ± 0.081 |
| WQELARSTDEFNGAQLK [RPT5] | 2.52 ± 0.16 | 2.73 ± 0.2 | 2.65 ± 0.24 | 2.29 ± 0.17 |
| GQLTGIYRYKYKVMHQI [PRP8] | 2.9 ± 0.14 | 2.2 ± 0.13 | 2.91 ± 0.088 | 2.42 ± 0.081 |
| NIKFLSKLEGTINKAVQ [ESC2] | 2.86 ± 0.11 | 3.35 ± 0.14 | 2.72 ± 0.1 | 2.91 ± 0.1 |
| NNESNKNNNGDEKNKNN [MED2] | 3.21 ± 0.074 | 3.39 ± 0.066 | 3.33 ± 0.038 | 3.31 ± 0.051 |
| SFKIFVDVLVISSHSHP [RRP42] | 1.21 ± 0.043 | 1.21 ± 0.047 | 1.19 ± 0.07 | 1.39 ± 0.032 |
| SPVQDWNLLRSLYIFFT [YML103C/NUP188] | 2.38 ± 0.079 | 1.71 ± 0.053 | 2.25 ± 0.069 | 1.95 ± 0.042 |
| ARDLLDDLEKTLDKKDS [RPN9] | 3.21 ± 0.17 | 2.75 ± 0.11 | 3.15 ± 0.12 | 2.56 ± 0.1 |
| ACLGNDGILRLYDALEP [YGL100W/SEH1] | 2.21 ± 0.058 | 2.19 ± 0.048 | 1.86 ± 0.065 | 1.96 ± 0.034 |
| FTKPPANETDKRPTPPS [YOR098C/NUP1] | 3.03 ± 0.043 | 3.05 ± 0.048 | 3.14 ± 0.039 | 3.15 ± 0.037 |
| KKHGKTDYFLPKNYSLH [YJL039C/NUP192] | 2.76 ± 0.057 | 2.63 ± 0.069 | 2.71 ± 0.049 | 2.35 ± 0.049 |
| IPSKNTPDASKPSFSFG [YLR335W/NUP2] | 2.51 ± 0.15 | 3.14 ± 0.23 | 2.44 ± 0.2 | 2.78 ± 0.085 |
| NATLQALYRVNDLRDMI [UBP6] | 2.74 ± 0.096 | 2.95 ± 0.093 | 3.03 ± 0.062 | 3.05 ± 0.075 |
| VPSYIHVEKERASTELS [YIL149C/MLP2] | 2.33 ± 0.1 | 2.46 ± 0.069 | 2.76 ± 0.084 | 2.77 ± 0.054 |
| AKILSQAPTELELQVAQ [RPS7A] | 2.48 ± 0.048 | 2.75 ± 0.052 | 2.3 ± 0.053 | 2.5 ± 0.046 |
| PLKFKLGPLSYQNMAFI [YJR042W/NUP85] | 2.42 ± 0.064 | 2.55 ± 0.06 | 2.58 ± 0.062 | 2.6 ± 0.049 |
| RILKLGTQLATLKNRGL [YGR119C/NUP57] | 2.29 ± 0.078 | 2.57 ± 0.068 | 2.65 ± 0.081 | 2.84 ± 0.046 |
| VPVRDGVTIEFSTNVKD [RPL9A] | 1.35 ± 0.27 | 1.58 ± 0.26 | – | – |
| SVYYHKGNFRTKPFENV [SNU114] | 3.35 ± 0.065 | 3.35 ± 0.091 | 3.37 ± 0.059 | 3.31 ± 0.092 |
| EPNLAAQQDSTNVRLYS [ECM29] | 2.88 ± 0.11 | 2.9 ± 0.063 | 2.81 ± 0.089 | 2.37 ± 0.074 |
| DLSYNFNVHEVPRAALE [YMR129W/POM152] | 2.91 ± 0.057 | 3.04 ± 0.069 | 2.85 ± 0.054 | 2.92 ± 0.049 |
| KPYYFSNNHKLSESDKK [RPN12] | 1.23 ± 0.063 | 1.47 ± 0.077 | 1.33 ± 0.13 | 1.22 ± 0.042 |

| Sequence | protein stability index (doa10∆) | protein stability index (pdr5∆) | protein stability index (san1∆) | protein stability index (ubr1∆) |
| --- | --- | --- | --- | --- |
| DVNIIGKDRIAINVFPE [RPO31] | 2.75 ± 0.12 | 3.05 ± 0.12 | 2.88 ± 0.098 | 3.36 ± 0.086 |
| NNTNNANSSITPAFGSN [YJL041W/NSP1] | 3.06 ± 0.11 | 3.06 ± 0.11 | 2.86 ± 0.11 | 3.06 ± 0.12 |
| TPTDVIGVVSLTNGVTE [RRP6] | 3.21 ± 0.14 | 2.87 ± 0.07 | 3.03 ± 0.098 | 3.15 ± 0.059 |
| AIQFVKENELLFGEKSI [YCS4] | 2.19 ± 0.098 | 2.09 ± 0.064 | 2.58 ± 0.16 | 1.92 ± 0.069 |
| MTIDDSNRLLMDVDQFD [YJR042W/NUP85] | – | 3.63 ± 0.21 | 3.25 ± 0.098 | 3.51 ± 0.2 |
| VSKSEPKFFLGEENRVR [QCR2] | 3.42 ± 0.097 | 3.18 ± 0.077 | 3.13 ± 0.053 | 3.26 ± 0.048 |
| DTDNECVAAWGVCNHAF [HRT1] | 3.25 ± 0.095 | 3.3 ± 0.059 | 3.33 ± 0.054 | 3.15 ± 0.05 |
| ETKVDELRYQSHILNSH [DSN1] | 2.38 ± 0.067 | 2.84 ± 0.057 | 2.79 ± 0.055 | 3 ± 0.05 |
| TEDRYNEYVAKVSAREK [FAS2] | 3.2 ± 0.086 | 3.14 ± 0.074 | 3.04 ± 0.094 | 3.3 ± 0.06 |
| LFGNKPTTTTGGLFGNS [YGR119C/NUP57] | 2.94 ± 0.1 | 2.79 ± 0.13 | 2.85 ± 0.18 | 3.19 ± 0.055 |
| RGPYLVIVPLSTLSNWS [SNF2] | 1.84 ± 0.051 | 2.32 ± 0.062 | 2.17 ± 0.065 | 2.41 ± 0.035 |
| SNLEKLLFINSSKLVDV [YML103C/NUP188] | 2.48 ± 0.094 | 2.07 ± 0.066 | 1.83 ± 0.12 | 2.62 ± 0.082 |
| DDIFIPQNMLFEGCYYT [RPC25] | 2.51 ± 0.17 | 2.89 ± 0.23 | 2.43 ± 0.12 | 2.76 ± 0.12 |
| SKLSEHLNHYILLRYHH [YCG1] | 2.16 ± 0.067 | 1.73 ± 0.059 | 1.82 ± 0.091 | 2.02 ± 0.062 |
| ASLNLLQLAPGAHLGRF [RPL4A] | 3.33 ± 0.16 | 3.03 ± 0.15 | 3.18 ± 0.092 | 3.26 ± 0.076 |
| QGSVTVGLRSNTHAVLV [PRE5] | 1.24 ± 0.033 | 1.43 ± 0.039 | 1.75 ± 0.07 | 1.29 ± 0.037 |
| SEGYQKTFSRLDALTRH [RPN4] | 1.17 ± 0.091 | 1.56 ± 0.15 | 1.06 ± 0.24 | – |
| ANEDEEEQLDALECRLA [CSN12] | – | 2.65 ± 0.28 | – | – |
| DYPFTQLGYIENSFYKK [POP1] | – | 3.14 ± 0.17 | 2.98 ± 0.1 | 3.44 ± 0.13 |
| FNEENGEDSTKPLGPCD [POP1] | 3.34 ± 0.14 | – | – | – |
| GGQHHHRINMDKYHPGY [RPL28] | 3.23 ± 0.1 | 3.36 ± 0.056 | 3.14 ± 0.1 | 2.99 ± 0.055 |
| AEQPLPVSPLDIYSDEA [RPS2] | 2.79 ± 0.07 | 2.97 ± 0.064 | 2.9 ± 0.038 | 2.92 ± 0.052 |
| NEKLADLGLEKEFQSVD [RPC53] | – | – | 2 ± 0.17 | – |
| LLVNPDIDLETYSFIDN [YML103C/NUP188] | 2.79 ± 0.059 | 2.6 ± 0.048 | 2.66 ± 0.056 | 2.6 ± 0.038 |
| TAETGYIQRRLVKALED [RPO21] | 2.31 ± 0.073 | 2.74 ± 0.074 | 2.69 ± 0.076 | 2.74 ± 0.072 |
